# Patent publication US20250136963A1 (DENALI THERAPEUTICS, published 2025)
# Molecular target: T1, human apical domain TfR (human, UniProt P02786 198-378)
# T1 construct: also called human TfR; human transferrin receptor 1 apical domain
# Test: SPR (Biacore 8K), fusion captured on Protein A chip, human TfR apical domain as analyte, 1:1 Langmuir fit, monovalent
# Description: To determine whether IDUA-Fc fusion proteins with engineered TfR binding affects the ability of the modified Fc domain to interact with human TfR, the affinity of ETV:IDUA Fusions 3, 4, and 6 (Example 1) for human TfR was measured by surface plasmon resonance (SPR) using a Biacore 8K instrument (Cytiva). Five (5) μg/mL of the IDUA-Fc fusion proteins were captured for 1 minute on Protein A-coated Biacore™ Series S CM5 sensor chip and serial 3-fold dilutions of human apical domain TfR were injected at a flow rate of 30 μL/min. Each sample was analyzed with five consecutive 60-second injections with increasing human TfR concentrations followed by a 60-second dissociation at the end of the injection cycle. After each injection, the chip was regenerated using 10 mM glycine-HCl (pH 1.5). Binding response was corrected by subtracting the RU from a flow cell capturing an irrelevant IgG at similar density A. 1:1 Languir model of simultaneous fitting of kₒₙ and koff was used for kinetics analysis using Biacore™ Insight Evaluation Software.
# T1 sequence (P02786 198-378 limits assumed): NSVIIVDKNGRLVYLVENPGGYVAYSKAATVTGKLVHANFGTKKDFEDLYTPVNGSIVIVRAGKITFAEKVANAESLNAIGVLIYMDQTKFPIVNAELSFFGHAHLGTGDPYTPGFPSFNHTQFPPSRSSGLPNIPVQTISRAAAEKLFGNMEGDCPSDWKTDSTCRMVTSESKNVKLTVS
row,Kd [nM],Binder
1,340,"ETV:IDUA Fusion 3 (Fc fusion, Heterodimer of the two chains; also called third N-terminal monozyme IDUA-Fc fusion protein) chain 1: DKTHTCPPCPAPEAAGGPSVFLFPPKPKDTLMISRTPEVTCVVVDVSHEDPEVKFNWYVDGVEVHNAKTKPREEQYNSTYRVVSVLTVLHQDWLNGKEYKCKVSNKALSAPIEKTISKAKGQPREPQVYTLPPSRDELTKNQVSLWCLVKGFYPSDIAVEWESYGTEWANYKTTPPVLDSDGSFFLYSKLTVTKEEWQQGFVFSCSVMHEALHNHYTQKSLSLSPGK chain 2: EAPHLVQVDAARALWPLRRFWRSTGFCPPLPHSQADQYVLSWDQQLNLAYVGAVPHRGIKQVRTHWLLELVTTRGSTGRGLSYNFTHLDGYLDLLRENQLLPGFELMGSASGHFTDFEDKQQVFEWKDLVSSLARRYIGRYGLAHVSKWNFETWNEPDHHDFDNVSMTMQGFLNYYDACSEGLRAASPALRLGGPGDSFHTPPRSPLSWGLLRHCHDGTNFFTGEAGVRLDYISLHRKGARSSISILEQEKVVAQQIRQLFPKFADTPIYNDEADPLVGWSLPQPWRADVTYAAMVVKVIAQHQNLLLANTTSAFPYALLSNDNAFLSYHPHPFAQRTLTARFQVNNTRPPHVQLLRKPVLTAMGLLALLDEEQLWAEVSQAGTVLDSNHTVGVLASAHRPQGPADAWRAAVLIYASDDTRAHPNRSVAVTLRLRGVPPGPGLVYVTRYLDNGLCSPDGEWRRLGRPVFPTAEQFRRMRAAEDPVAAAPRPLPAGGRLTLRPALRLPSLLLVHVCARPEKPPGQVTRLRALPLTQGQLVLVWSDEHVGSKCLWTYEIQFSQDGKAYTPVSRKPSTFNLFVFSPDTGAVSGSYRVRALDYWARPGPFSDPVPYLEVPVPRGPPSPGNPGGGGSDKTHTCPPCPAPEAAGGPSVFLFPPKPKDTLMISRTPEVTCVVVDVSHEDPEVKFNWYVDGVEVHNAKTKPREEQYNSTYRVVSVLTVLHQDWLNGKEYKCKVSNKALSAPIEKTISKAKGQPREPQVYTLPPSRDELTKNQVSLSCAVKGFYPSDIAVEWESNGQPENNYKTTPPVLDSDGSFFLVSKLTVDKSRWQQGNVFSCSVMHEALHNHYTQKSLSLSPGK"
2,355,"ETV:IDUA Fusion 4 (Fc fusion, Heterodimer of the two chains; also called fourth N-terminal monozyme IDUA-Fc fusion protein) chain 1: DKTHTCPPCPAPEAAGGPSVFLFPPKPKDTLMISRTPEVTCVVVDVSHEDPEVKFNWYVDGVEVHNAKTKPREEQYNSTYRVVSVLTVLHQDWLNGKEYKCKVSNKALSAPIEKTISKAKGQPREPQVYTLPPSRDELTKNQVSLWCLVKGFYPSDIAVEWESYGTEWANYKTTPPVLDSDGSFFLYSKLTVTKEEWQQGFVFSCSVMHEALHNHYTQKSLSLSPGK chain 2: EAPHLVQVDAARALWPLRRFWRSTGFCPPLPHSQADQYVLSWDQQLNLAYVGAVPHRGIKQVRTHWLLELVTTRGSTGRGLSYNFTHLDGYLDLLRENQLLPGFELMGSASGHFTDFEDKQQVFEWKDLVSSLARRYIGRYGLAHVSKWNFETWNEPDHHDFDNVSMTMQGFLNYYDACSEGLRAASPALRLGGPGDSFHTPPRSPLSWGLLRHCHDGTNFFTGEAGVRLDYISLHRKGARSSISILEQEKVVAQQIRQLFPKFADTPIYNDEADPLVGWSLPQPWRADVTYAAMVVKVIAQHQNLLLANTTSAFPYALLSNDNAFLSYHPHPFAQRTLTARFQVNNTRPPHVQLLRKPVLTAMGLLALLDEEQLWAEVSQAGTVLDSNHTVGVLASAHRPQGPADAWRAAVLIYASDDTRAHPNRSVAVTLRLRGVPPGPGLVYVTRYLDNGLCSPDGEWRRLGRPVFPTAEQFRRMRAAEDPVAAAPRPLPAGGRLTLRPALRLPSLLLVHVCARPEKPPGQVTRLRALPLTQGQLVLVWSDEHVGSKCLWTYEIQFSQDGKAYTPVSRKPSTFNLFVFSPDTGAVSGSYRVRALDYWARPGPFSDPVPYLEVPVGGGGSDKTHTCPPCPAPEAAGGPSVFLFPPKPKDTLMISRTPEVTCVVVDVSHEDPEVKFNWYVDGVEVHNAKTKPREEQYNSTYRVVSVLTVLHQDWLNGKEYKCKVSNKALSAPIEKTISKAKGQPREPQVYTLPPSRDELTKNQVSLSCAVKGFYPSDIAVEWESNGQPENNYKTTPPVLDSDGSFFLVSKLTVDKSRWQQGNVFSCSVMHEALHNHYTQKSLSLSPGK"
3,200,"ETV:IDUA Fusion 6 (Fc fusion, Heterodimer of the two chains; also called C-terminal monozyme IDUA-Fc fusion protein) chain 1: DKTHTCPPCPAPEAAGGPSVFLFPPKPKDTLMISRTPEVTCVVVDVSHEDPEVKFNWYVDGVEVHNAKTKPREEQYNSTYRVVSVLTVLHQDWLNGKEYKCKVSNKALSAPIEKTISKAKGQPREPQVYTLPPSRDELTKNQVSLWCLVKGFYPSDIAVEWESYGTEWANYKTTPPVLDSDGSFFLYSKLTVTKEEWQQGFVFSCSVMHEALHNHYTQKSLSLSPGK chain 2: DKTHTCPPCPAPEAAGGPSVFLFPPKPKDTLMISRTPEVTCVVVDVSHEDPEVKFNWYVDGVEVHNAKTKPREEQYNSTYRVVSVLTVLHQDWLNGKEYKCKVSNKALSAPIEKTISKAKGQPREPQVYTLPPSRDELTKNQVSLSCAVKGFYPSDIAVEWESNGQPENNYKTTPPVLDSDGSFFLVSKLTVDKSRWQQGNVFSCSVMHEALHNHYTQKSLSLSPGKGGGGSEAPHLVQVDAARALWPLRRFWRSTGFCPPLPHSQADQYVLSWDQQLNLAYVGAVPHRGIKQVRTHWLLELVTTRGSTGRGLSYNFTHLDGYLDLLRENQLLPGFELMGSASGHFTDFEDKQQVFEWKDLVSSLARRYIGRYGLAHVSKWNFETWNEPDHHDFDNVSMTMQGFLNYYDACSEGLRAASPALRLGGPGDSFHTPPRSPLSWGLLRHCHDGTNFFTGEAGVRLDYISLHRKGARSSISILEQEKVVAQQIRQLFPKFADTPIYNDEADPLVGWSLPQPWRADVTYAAMVVKVIAQHQNLLLANTTSAFPYALLSNDNAFLSYHPHPFAQRTLTARFQVNNTRPPHVQLLRKPVLTAMGLLALLDEEQLWAEVSQAGTVLDSNHTVGVLASAHRPQGPADAWRAAVLIYASDDTRAHPNRSVAVTLRLRGVPPGPGLVYVTRYLDNGLCSPDGEWRRLGRPVFPTAEQFRRMRAAEDPVAAAPRPLPAGGRLTLRPALRLPSLLLVHVCARPEKPPGQVTRLRALPLTQGQLVLVWSDEHVGSKCLWTYEIQFSQDGKAYTPVSRKPSTFNLFVFSPDTGAVSGSYRVRALDYWARPGPFSDPVPYLEVPVPRGPPSPGNP"
